According to patent publication US20240018502A1:

Molecular target: plasma purified human complement protein C3 (human) (UniProt P01024)
Assay: cell-based or functional assay

Chain of plasma purified human complement protein C3 (human) (P01024 23-667, chain 1 of 2): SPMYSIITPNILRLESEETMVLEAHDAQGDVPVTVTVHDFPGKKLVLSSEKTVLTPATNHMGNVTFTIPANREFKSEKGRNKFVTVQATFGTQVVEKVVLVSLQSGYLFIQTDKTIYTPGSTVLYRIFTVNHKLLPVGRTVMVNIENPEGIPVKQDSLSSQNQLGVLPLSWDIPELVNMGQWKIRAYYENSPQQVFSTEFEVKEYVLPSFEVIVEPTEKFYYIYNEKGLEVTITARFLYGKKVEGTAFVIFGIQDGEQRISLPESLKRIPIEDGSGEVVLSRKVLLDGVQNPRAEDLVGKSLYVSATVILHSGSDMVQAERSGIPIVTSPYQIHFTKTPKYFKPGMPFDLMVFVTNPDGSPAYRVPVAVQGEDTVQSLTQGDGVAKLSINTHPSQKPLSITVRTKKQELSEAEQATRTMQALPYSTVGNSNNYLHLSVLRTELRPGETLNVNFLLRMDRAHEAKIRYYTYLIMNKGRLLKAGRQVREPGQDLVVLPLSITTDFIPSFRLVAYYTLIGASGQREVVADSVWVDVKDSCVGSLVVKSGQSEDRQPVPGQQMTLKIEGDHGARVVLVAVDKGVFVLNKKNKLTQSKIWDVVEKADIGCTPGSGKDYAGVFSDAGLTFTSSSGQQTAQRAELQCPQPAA
Chain of plasma purified human complement protein C3 (human) (P01024 672-1663, chain 2 of 2): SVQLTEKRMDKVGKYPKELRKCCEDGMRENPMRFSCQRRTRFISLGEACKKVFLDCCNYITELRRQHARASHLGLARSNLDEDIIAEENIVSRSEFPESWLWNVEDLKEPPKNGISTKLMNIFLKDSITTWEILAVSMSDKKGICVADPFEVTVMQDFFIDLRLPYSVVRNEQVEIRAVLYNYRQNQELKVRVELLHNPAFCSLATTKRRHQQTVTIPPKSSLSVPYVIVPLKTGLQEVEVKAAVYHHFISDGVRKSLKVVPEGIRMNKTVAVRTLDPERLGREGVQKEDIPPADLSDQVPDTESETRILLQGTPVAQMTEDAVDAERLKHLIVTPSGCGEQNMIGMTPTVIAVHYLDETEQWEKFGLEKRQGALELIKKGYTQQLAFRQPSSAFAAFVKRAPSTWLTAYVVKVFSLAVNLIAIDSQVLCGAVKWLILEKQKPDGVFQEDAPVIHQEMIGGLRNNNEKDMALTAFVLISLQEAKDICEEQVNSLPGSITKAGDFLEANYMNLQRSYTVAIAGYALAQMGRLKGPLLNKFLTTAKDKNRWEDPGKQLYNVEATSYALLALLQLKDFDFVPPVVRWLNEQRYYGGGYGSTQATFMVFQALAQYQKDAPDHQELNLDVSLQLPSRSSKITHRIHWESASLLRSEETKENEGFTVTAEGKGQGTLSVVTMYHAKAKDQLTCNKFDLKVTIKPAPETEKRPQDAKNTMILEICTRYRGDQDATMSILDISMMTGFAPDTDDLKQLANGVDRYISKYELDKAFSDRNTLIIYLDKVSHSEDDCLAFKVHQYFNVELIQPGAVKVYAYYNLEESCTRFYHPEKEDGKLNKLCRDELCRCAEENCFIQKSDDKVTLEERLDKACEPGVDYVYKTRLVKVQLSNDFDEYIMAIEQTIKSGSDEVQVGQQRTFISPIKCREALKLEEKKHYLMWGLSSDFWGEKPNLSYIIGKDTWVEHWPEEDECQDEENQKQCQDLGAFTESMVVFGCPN

Binder	EC50 of hC3 cleavage [nM]
MTSP-1 Q38H/I41S/D60bA/F60eV/Y60gF/ins97aE/F97T/T98G/F99L/C122S/G151N/Q175L/Q192T (enzyme) VVGGTDADEGEWPWQVSLHALGHGHSCGASLISPNWLVSAAHCYIDARGVRFSDPTQWTAFLGLHDQSQRSAPGVQERRLKRIISHPFFNDTEGLDYDIALLELEKPAEYSSMVRPISLPDASHVFPAGKAIWVTGWGHTQYGGTNALILQKGEIRVINQTTCENLLPQLITPRMMCVGFLSGGVDSCTGDSGGPLSSVEADGRIFQAGVVSWGDGCAQRNKPGVYTRLPLFRDWIKENTGV	14.2
MTSP-1 Q38H/I41A/D60bV/F60eR/Y60gW/ins97aE/F97T/T98G/F99L/C122S/G151N/Q175L/Q192D (enzyme) VVGGTDADEGEWPWQVSLHALGHGHACGASLISPNWLVSAAHCYIDVRGRRWSDPTQWTAFLGLHDQSQRSAPGVQERRLKRIISHPFFNDTEGLDYDIALLELEKPAEYSSMVRPISLPDASHVFPAGKAIWVTGWGHTQYGGTNALILQKGEIRVINQTTCENLLPQLITPRMMCVGFLSGGVDSCDGDSGGPLSSVEADGRIFQAGVVSWGDGCAQRNKPGVYTRLPLFRDWIKENTGV	7.74
MTSP-1 Q38E/I41S/D60bH/F60eI/ins97aE/F97T/T98G/F99L/C122S/G151N/Q175L/Q192V (enzyme) VVGGTDADEGEWPWQVSLHALGEGHSCGASLISPNWLVSAAHCYIDHRGIRYSDPTQWTAFLGLHDQSQRSAPGVQERRLKRIISHPFFNDTEGLDYDIALLELEKPAEYSSMVRPISLPDASHVFPAGKAIWVTGWGHTQYGGTNALILQKGEIRVINQTTCENLLPQLITPRMMCVGFLSGGVDSCVGDSGGPLSSVEADGRIFQAGVVSWGDGCAQRNKPGVYTRLPLFRDWIKENTGV	11.5
MTSP-1 Q38H/I41A/D60bT/F60eH/Y60gW/ins97aE/F97T/T98G/F99L/C122S/Q175L/Q192D (enzyme) VVGGTDADEGEWPWQVSLHALGHGHACGASLISPNWLVSAAHCYIDTRGHRWSDPTQWTAFLGLHDQSQRSAPGVQERRLKRIISHPFFNDTEGLDYDIALLELEKPAEYSSMVRPISLPDASHVFPAGKAIWVTGWGHTQYGGTGALILQKGEIRVINQTTCENLLPQLITPRMMCVGFLSGGVDSCDGDSGGPLSSVEADGRIFQAGVVSWGDGCAQRNKPGVYTRLPLFRDWIKENTGV	2.28
MTSP-1 Q38H/I41A/F60eA/Y60gW/ins97aE/F97T/T98G/F99L/C122S/Q175L/Q192E (enzyme) VVGGTDADEGEWPWQVSLHALGHGHACGASLISPNWLVSAAHCYIDDRGARWSDPTQWTAFLGLHDQSQRSAPGVQERRLKRIISHPFFNDTEGLDYDIALLELEKPAEYSSMVRPISLPDASHVFPAGKAIWVTGWGHTQYGGTGALILQKGEIRVINQTTCENLLPQLITPRMMCVGFLSGGVDSCEGDSGGPLSSVEADGRIFQAGVVSWGDGCAQRNKPGVYTRLPLFRDWIKENTGV	5.93
MTSP-1 Q38H/I41A/D60bV/F60eT/Y60gW/ins97aE/F97T/T98G/F99L/C122S/Q175L/Q192E (enzyme) VVGGTDADEGEWPWQVSLHALGHGHACGASLISPNWLVSAAHCYIDVRGTRWSDPTQWTAFLGLHDQSQRSAPGVQERRLKRIISHPFFNDTEGLDYDIALLELEKPAEYSSMVRPISLPDASHVFPAGKAIWVTGWGHTQYGGTGALILQKGEIRVINQTTCENLLPQLITPRMMCVGFLSGGVDSCEGDSGGPLSSVEADGRIFQAGVVSWGDGCAQRNKPGVYTRLPLFRDWIKENTGV	1.39
MTSP-1 Q38H/I41A/D60bT/F60eK/Y60gW/ins97aE/F97T/T98G/F99L/C122S/Q175L/Q192D (enzyme) VVGGTDADEGEWPWQVSLHALGHGHACGASLISPNWLVSAAHCYIDTRGKRWSDPTQWTAFLGLHDQSQRSAPGVQERRLKRIISHPFFNDTEGLDYDIALLELEKPAEYSSMVRPISLPDASHVFPAGKAIWVTGWGHTQYGGTGALILQKGEIRVINQTTCENLLPQLITPRMMCVGFLSGGVDSCDGDSGGPLSSVEADGRIFQAGVVSWGDGCAQRNKPGVYTRLPLFRDWIKENTGV	3.82
MTSP-1 Q38H/I41A/D60bA/F60eR/ins97aE/F97T/T98G/F99L/C122S/G151N/Q175L/Q192E (enzyme) VVGGTDADEGEWPWQVSLHALGHGHACGASLISPNWLVSAAHCYIDARGRRYSDPTQWTAFLGLHDQSQRSAPGVQERRLKRIISHPFFNDTEGLDYDIALLELEKPAEYSSMVRPISLPDASHVFPAGKAIWVTGWGHTQYGGTNALILQKGEIRVINQTTCENLLPQLITPRMMCVGFLSGGVDSCEGDSGGPLSSVEADGRIFQAGVVSWGDGCAQRNKPGVYTRLPLFRDWIKENTGV	14.2
MTSP-1 Q38E/I41S/D60bV/F60eK/ins97aE/F97T/T98G/F99L/C122S/G151N/Q175L/Q192I (enzyme) VVGGTDADEGEWPWQVSLHALGEGHSCGASLISPNWLVSAAHCYIDVRGKRYSDPTQWTAFLGLHDQSQRSAPGVQERRLKRIISHPFFNDTEGLDYDIALLELEKPAEYSSMVRPISLPDASHVFPAGKAIWVTGWGHTQYGGTNALILQKGEIRVINQTTCENLLPQLITPRMMCVGFLSGGVDSCIGDSGGPLSSVEADGRIFQAGVVSWGDGCAQRNKPGVYTRLPLFRDWIKENTGV	19.1
MTSP-1 Q38H/I41A/D60bV/F60eI/ins97aE/F97T/T98G/F99L/C122S/Q175L/Q192E (enzyme) VVGGTDADEGEWPWQVSLHALGHGHACGASLISPNWLVSAAHCYIDVRGIRYSDPTQWTAFLGLHDQSQRSAPGVQERRLKRIISHPFFNDTEGLDYDIALLELEKPAEYSSMVRPISLPDASHVFPAGKAIWVTGWGHTQYGGTGALILQKGEIRVINQTTCENLLPQLITPRMMCVGFLSGGVDSCEGDSGGPLSSVEADGRIFQAGVVSWGDGCAQRNKPGVYTRLPLFRDWIKENTGV	7.64
MTSP-1 Q38H/I41A/D60bE/F60eH/Y60gW/ins97aE/F97T/T98G/F99L/C122S/Q175L/Q192D (enzyme) VVGGTDADEGEWPWQVSLHALGHGHACGASLISPNWLVSAAHCYIDERGHRWSDPTQWTAFLGLHDQSQRSAPGVQERRLKRIISHPFFNDTEGLDYDIALLELEKPAEYSSMVRPISLPDASHVFPAGKAIWVTGWGHTQYGGTGALILQKGEIRVINQTTCENLLPQLITPRMMCVGFLSGGVDSCDGDSGGPLSSVEADGRIFQAGVVSWGDGCAQRNKPGVYTRLPLFRDWIKENTGV	5.38
MTSP-1 Q38G/H40R/I41H/D60bH/F60eK/F97T/ins97aE/T98G/F99L/C122S/Q175L/V183A/Q192G (enzyme) VVGGTDADEGEWPWQVSLHALGGGRHCGASLISPNWLVSAAHCYIDHRGKRYSDPTQWTAFLGLHDQSQRSAPGVQERRLKRIISHPFFNDTEGLDYDIALLELEKPAEYSSMVRPISLPDASHVFPAGKAIWVTGWGHTQYGGTGALILQKGEIRVINQTTCENLLPQLITPRMMCAGFLSGGVDSCGGDSGGPLSSVEADGRIFQAGVVSWGDGCAQRNKPGVYTRLPLFRDWIKENTGV	27.7

Continued, values first:

EC50 of hC3 cleavage [nM]	Binder
5.95	MTSP-1 Q38H/I41S/D60bV/F60eQ/Y60gF/ins97aE/F97T/T98G/F99L/C122S/Q175L/Q192I (enzyme) VVGGTDADEGEWPWQVSLHALGHGHSCGASLISPNWLVSAAHCYIDVRGQRFSDPTQWTAFLGLHDQSQRSAPGVQERRLKRIISHPFFNDTEGLDYDIALLELEKPAEYSSMVRPSLPDASHVFPAGKAIWVTGWGHTQYGGTGALILQKGEIRVINQTTCENLLPQLITPRMMCVGFLSGGVDSCIGDSGGPLSSVEADGRIFQAGVVSWGDGCAQRNKPGVYTRLPLFRDWIKENTGV
4.93	MTSP-1 Q38H/I41T/D60bV/F60eQ/F97T/ins97aE/T98G/F99L/C122S/Q175L/Q192G (enzyme) VVGGTDADEGEWPWQVSLHALGHGHTCGASLISPNWLVSAAHCYIDVRGQRYSDPTQWTAFLGLHDQSQRSAPGVQERRLKRIISHPFFNDTEGLDYDIALLELEKPAEYSSMVRPISLPDASHVFPAGKAIWVTGWGHTQYGGTGALILQKGEIRVINQTTCENLLPQLITPRMMCVGFLSGGVDSCGGDSGGPLSSVEADGRIFQAGVVSWGDGCAQRNKPGVYTRLPLFRDWIKENTGV
6.26	MTSP-1 Q38S/I41S/F60eR/F97T/ins97aE/T98G/F99L/C122S/G151N/Q175L/Q192S (enzyme) VVGGTDADEGEWPWQVSLHALGSGHSCGASLISPNWLVSAAHCYIDDRGRRYSDPTQWTAFLGLHDQSQRSAPGVQERRLKRIISHPFFNDTEGLDYDIALLELEKPAEYSSMVRPISLPDASHVFPAGKAIWVTGWGHTQYGGTNALILQKGEIRVINQTTCENLLPQLITPRMMCVGFLSGGVDSCSGDSGGPLSSVEADGRIFQAGVVSWGDGCAQRNKPGVYTRLPLFRDWIKENTGV
8.35	MTSP-1 Q38H/I41S/D60bS/F60eR/Y60gW/F97T/ins97aE/T98G/F99L/C122S/Q175L/Q192E (enzyme) VVGGTDADEGEWPWQVSLHALGHGHSCGASLISPNWLVSAAHCYIDSRGRRWSDPTQWTAFLGLHDQSQRSAPGVQERRLKRIISHPFFNDTEGLDYDIALLELEKPAEYSSMVRPISLPDASHVFPAGKAIWVTGWGHTQYGGTGALILQKGEIRVINQTTCENLLPQLITPRMMCVGFLSGGVDSCEGDSGGPLSSVEADGRIFQAGVVSWGDGCAQRNKPGVYTRLPLFRDWIKENTGV
29.8	MTSP-1 Q38H/I41S/D60bT/F60eS/ins97aV/F97D/T98P/F99L/C122S/G151H/Q175L/Q192E (enzyme) VVGGTDADEGEWPWQVSLHALGHGHSCGASLISPNWLVSAAHCYIDTRGSRYSDPTQWTAFLGLHDQSQRSAPGVQERRLKRIISHPFFNDDVPLDYDIALLELEKPAEYSSMVRPISLPDASHVFPAGKAIWVTGWGHTQYGGTHALILQKGEIRVINQTTCENLLPQLITPRMMCVGFLSGGVDSCEGDSGGPLSSVEADGRIFQAGVVSWGDGCAQRNKPGVYTRLPLFRDWIKENTGV
45.4	MTSP-1 Q38H/I41S/D60bT/F60eS/F97D/ins97aV/T98P/F99L/C122S/G151H/Q175L/Q192D (enzyme) VVGGTDADEGEWPWQVSLHALGHGHSCGASLISPNWLVSAAHCYIDTRGSRYSDPTQWTAFLGLHDQSQRSAPGVQERRLKRIISHPFFNDDVPLDYDIALLELEKPAEYSSMVRPISLPDASHVFPAGKAIWVTGWGHTQYGGTHALILQKGEIRVINQTTCENLLPQLITPRMMCVGFLSGGVDSCDGDSGGPLSSVEADGRIFQAGVVSWGDGCAQRNKPGVYTRLPLFRDWIKENTGV
30.6	MTSP-1 Q38R/I41T/ins97aE/F97T/T98G/F99L/C122S/G151N/Q175L/Q192G (enzyme) VVGGTDADEGEWPWQVSLHALGRGHTCGASLISPNWLVSAAHCYIDDRGFRYSDPTQWTAFLGLHDQSQRSAPGVQERRLKRIISHPFFNDTEGLDYDIALLELEKPAEYSSMVRPISLPDASHVFPAGKAIWVTGWGHTQYGGTNALILQKGEIRVINQTTCENLLPQLITPRMMCVGFLSGGVDSCGGDSGGPLSSVEADGRIFQAGVVSWGDGCAQRNKPGVYTRLPLFRDWIKENTGV
105	MTSP-1 Q38R/I41E/ins97aE/F97T/T98G/F99L/C122S/G151N/Q175L/Q192T (enzyme) VVGGTDADEGEWPWQVSLHALGRGHECGASLISPNWLVSAAHCYIDDRGFRYSDPTQWTAFLGLHDQSQRSAPGVQERRLKRIISHPFFNDTEGLDYDIALLELEKPAEYSSMVRPISLPDASHVFPAGKAIWVTGWGHTQYGGTNALILQKGEIRVINQTTCENLLPQLITPRMMCVGFLSGGVDSCTGDSGGPLSSVEADGRIFQAGVVSWGDGCAQRNKPGVYTRLPLFRDWIKENTGV
32.9	MTSP-1 Q38R/I41S/D60bH/F60eI/ins97aE/F97T/T98G/F99L/C122S/G151N/Q175L/Q192E (enzyme) VVGGTDADEGEWPWQVSLHALGRGHSCGASLISPNWLVSAAHCYIDHRGIRYSDPTQWTAFLGLHDQSQRSAPGVQERRLKRIISHPFFNDTEGLDYDIALLELEKPAEYSSMVRPISLPDASHVFPAGKAIWVTGWGHTQYGGTNALILQKGEIRVINQTTCENLLPQLITPRMMCVGFLSGGVDSCEGDSGGPLSSVEADGRIFQAGVVSWGDGCAQRNKPGVYTRLPLFRDWIKENTGV
